# Measured values: patent US20100260668A1 (published 2010)
# B1: DVD513 (bispecific antibody, human IgG1, kappa)
# heavy: not shown
# light: QAVVTQESALTTSPGETVTLTCRSSTGAVTTSNYANWVQEKPDHLFTGLIGGTNNRAPGVPARFSGSLIGDKAALTITGAQTEDEAIYFCALWYSNHWVFGGGTKLTVLGQPKAAPDIQMTQSPSSLSASVGDRVTITCRASQDVSTAVAWYQQKPGKAPKLLIYSASFLYSGVPSRFSGSGSGTDFTLTISSLQPEDFATYYCQQSYTTPPTFGQGTKVEIKRTVAAPSVFIFPPSDEQLKSGTASVVCLLNNFYPREAKVQWKVDNALQSGNSQESVTEQDSKDSTYSLSSTLTLSKADYEKHKVYACEVTHQGLSSPVTKSFNRGEC
# notes: HC linker short, LC linker short; also called DVD-Ig DVD513
# B2: DVD525 (bispecific antibody, human IgG1, kappa)
# heavy: not shown
# light: B1 light
# notes: HC linker long, LC linker short; also called DVD-Ig DVD525
# B3: DVD443 (bispecific antibody, human IgG1, kappa)
# heavy: not shown
# light: DIVMTQSPDSLAVSLGERATISCRASESVDNYGISFMKWFQQKPGQPPKLLIYAASNQGSGVPDRFSGSGSGTDFTLTISSLQAEDVAVYYCQQSKEVPWTFGGGTKVEIKRTVAAPDIQMTQSPSSLSASVGDRVTITCRASQDVSTAVAWYQQKPGKAPKLLIYSASFLYSGVPSRFSGSGSGTDFTLTISSLQPEDFATYYCQQSYTTPPTFGQGTKVEIKRTVAAPSVFIFPPSDEQLKSGTASVVCLLNNFYPREAKVQWKVDNALQSGNSQESVTEQDSKDSTYSLSSTLTLSKADYEKHKVYACEVTHQGLSSPVTKSFNRGEC
# notes: HC linker short, LC linker short; also called DVD-Ig DVD443
# B4: DVD455 (bispecific antibody, human IgG1, kappa)
# heavy: not shown
# light: B3 light
# notes: HC linker long, LC linker short; also called DVD-Ig DVD455
# B5: DVD519 (bispecific antibody, human IgG1, kappa, lambda)
# heavy: not shown
# light: QAVVTQESALTTSPGETVTLTCRSSTGAVTTSNYANWVQEKPDHLFTGLIGGTNNRAPGVPARFSGSLIGDKAALTITGAQTEDEAIYFCALWYSNHWVFGGGTKLTVLGQPKAAPSVTLFPPDIQMTQSPSSLSASVGDRVTITCRASQDVSTAVAWYQQKPGKAPKLLIYSASFLYSGVPSRFSGSGSGTDFTLTISSLQPEDFATYYCQQSYTTPPTFGQGTKVEIKRTVAAPSVFIFPPSDEQLKSGTASVVCLLNNFYPREAKVQWKVDNALQSGNSQESVTEQDSKDSTYSLSSTLTLSKADYEKHKVYACEVTHQGLSSPVTKSFNRGEC
# notes: HC linker long, LC linker long; also called DVD-Ig DVD519
# B6: DVD465 (bispecific antibody, human IgG1, kappa)
# heavy: not shown
# light: DIQMTQSPSSLSASVGDRVTITCRASQDVSTAVAWYQQKPGKAPKLLIYSASFLYSGVPSRFSGSGSGTDFTLTISSLQPEDFATTYYCQQSYTGTVTFGQGTKVEIKRTVAAPDIQMTQSPSSLSASVGDRVTITCRASQDVSTAVAWYQQKPGKAPKLLIYSASFLYSGVPSRFSGSGSGTDFTLTISSLQPEDFATYYCQQSYTTPPTFGQGTKVEIKRTVAAPSVFIFPPSDEQLKSGTASVVCLLNNFYPREAKVQWKVDNALQSGNSQESVTEQDSKDSTYSLSSTLTLSKADYEKHKVYACEVTHQGLSSPVTKSFNRGEC
# notes: HC linker short, LC linker short; also called DVD-Ig DVD465
# B7: DVD477 (bispecific antibody, human IgG1, kappa, L234A L235A)
# heavy: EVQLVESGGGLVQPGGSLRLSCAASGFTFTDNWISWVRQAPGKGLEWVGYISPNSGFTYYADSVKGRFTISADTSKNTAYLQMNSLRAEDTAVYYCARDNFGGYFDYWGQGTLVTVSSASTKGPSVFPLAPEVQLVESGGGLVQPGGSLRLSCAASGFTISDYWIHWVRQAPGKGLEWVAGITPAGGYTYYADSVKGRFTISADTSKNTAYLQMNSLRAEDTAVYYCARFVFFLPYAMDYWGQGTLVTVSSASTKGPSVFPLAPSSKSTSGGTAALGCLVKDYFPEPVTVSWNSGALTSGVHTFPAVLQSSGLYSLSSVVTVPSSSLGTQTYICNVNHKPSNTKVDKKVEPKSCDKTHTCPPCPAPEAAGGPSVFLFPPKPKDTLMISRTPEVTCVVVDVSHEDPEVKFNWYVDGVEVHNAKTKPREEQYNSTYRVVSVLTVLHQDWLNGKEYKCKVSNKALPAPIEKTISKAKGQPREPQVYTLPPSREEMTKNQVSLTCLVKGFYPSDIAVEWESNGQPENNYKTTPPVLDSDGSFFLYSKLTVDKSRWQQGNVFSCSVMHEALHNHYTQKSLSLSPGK
# light: B6 light
# notes: HC linker long, LC linker short; also called DVD-Ig DVD477
# B8: DVD449 (bispecific antibody, human IgG1, kappa)
# heavy: not shown
# light: DIVMTQSPDSLAVSLGERATISCRASESVDNYGISFMKWFQQKPGQPPKLLIYAASNQGSGVPDRFSGSGSGTDFTLTISSLQAEDVAVYYCQQSKEVPWTFGGGTKVEIKRTVAAPSVFIFPPDIQMTQSPSSLSASVGDRVTITCRASQDVSTAVAWYQQKPGKAPKLLIYSASFLYSGVPSRFSGSGSGTDFTLTISSLQPEDFATYYCQQSYTTPPTFGQGTKVEIKRTVAAPSVFIFPPSDEQLKSGTASVVCLLNNFYPREAKVQWKVDNALQSGNSQESVTEQDSKDSTYSLSSTLTLSKADYEKHKVYACEVTHQGLSSPVTKSFNRGEC
# notes: HC linker long, LC linker long; also called DVD-Ig DVD449
# B9: DVD461 (bispecific antibody, human IgG1, kappa)
# heavy: not shown
# light: B8 light
# notes: HC linker short, LC linker long; also called DVD-Ig DVD461
# B10: DVD471 (bispecific antibody, human IgG1, kappa, L234A L235A)
# heavy: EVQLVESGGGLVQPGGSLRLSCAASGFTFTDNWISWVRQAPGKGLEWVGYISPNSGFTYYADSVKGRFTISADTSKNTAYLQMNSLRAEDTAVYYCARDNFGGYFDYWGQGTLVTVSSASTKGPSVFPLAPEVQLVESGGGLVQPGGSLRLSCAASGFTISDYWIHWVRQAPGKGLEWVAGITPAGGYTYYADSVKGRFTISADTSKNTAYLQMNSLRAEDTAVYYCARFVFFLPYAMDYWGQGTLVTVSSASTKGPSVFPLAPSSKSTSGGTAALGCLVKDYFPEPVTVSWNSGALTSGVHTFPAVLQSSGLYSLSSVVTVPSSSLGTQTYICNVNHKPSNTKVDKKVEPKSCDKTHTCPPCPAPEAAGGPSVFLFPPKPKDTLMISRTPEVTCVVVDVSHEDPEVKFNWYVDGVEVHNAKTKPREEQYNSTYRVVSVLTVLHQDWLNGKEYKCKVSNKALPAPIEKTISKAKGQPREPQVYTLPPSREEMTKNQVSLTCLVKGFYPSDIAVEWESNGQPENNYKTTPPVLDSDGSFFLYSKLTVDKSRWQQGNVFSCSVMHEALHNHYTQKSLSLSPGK
# light: DIQMTQSPSSLSASVGDRVTITCRASQDVSTAVAWYQQKPGKAPKLLIYSASFLYSGVPSRFSGSGSGTDFTLTISSLQPEDFATTYYCQQSYTGTVTFGQGTKVEIKRTVAAPSVFIFPPDIQMTQSPSSLSASVGDRVTITCRASQDVSTAVAWYQQKPGKAPKLLIYSASFLYSGVPSRFSGSGSGTDFTLTISSLQPEDFATYYCQQSYTTPPTFGQGTKVEIKRTVAAPSVFIFPPSDEQLKSGTASVVCLLNNFYPREAKVQWKVDNALQSGNSQESVTEQDSKDSTYSLSSTLTLSKADYEKHKVYACEVTHQGLSSPVTKSFNRGEC
# notes: HC linker long, LC linker long; also called DVD-Ig DVD471
# B11: DVD483 (bispecific antibody, human IgG1, kappa)
# heavy: not shown
# light: B10 light
# notes: HC linker short, LC linker long; also called DVD-Ig DVD483
# Target: T1, DLL4 ECD His tag (UniProt Q9NR61 27-529, limits assumed)
# T1 construct: extracellular domain; also called DLL ECD His tag
# Experiment: SPR (Biacore), DVD-Ig captured, DLL4 as analyte
Kd,koff,kon,Binder
2.5 nM,0.000677 s⁻¹,271000 M⁻¹ s⁻¹,B1
2.57 nM,0.00122 s⁻¹,475000 M⁻¹ s⁻¹,B2
4.11 nM,0.000596 s⁻¹,145000 M⁻¹ s⁻¹,B3
4.7 nM,0.000604 s⁻¹,129000 M⁻¹ s⁻¹,B4
2.83 nM,0.000472 s⁻¹,167000 M⁻¹ s⁻¹,B5
0.205 nM,0.000164 s⁻¹,797000 M⁻¹ s⁻¹,B6
0.306 nM,0.000165 s⁻¹,540000 M⁻¹ s⁻¹,B7
4.81 nM,0.000584 s⁻¹,121000 M⁻¹ s⁻¹,B8
4.69 nM,0.000538 s⁻¹,115000 M⁻¹ s⁻¹,B9
0.672 nM,0.000252 s⁻¹,376000 M⁻¹ s⁻¹,B10
0.334 nM,0.000139 s⁻¹,416000 M⁻¹ s⁻¹,B11
